# From PMC10003451, “Phosphorylated Peptide Derived from the Myosin Phosphatase Target Subunit Is a Novel Inhibitor of Protein Phosphatase-1” (International Journal of Molecular Sciences, 2023)
# Legend:
# [1] = biological target: T1, recombinant PP1cα (rPP1cα) (Homo sapiens, UniProt P62136); experiment: Microscale thermophoresis (MST); format: binding; details: rPP1cα 2 µM, peptide 9.16 nM-300 µM, 25 mM Tris/HCl, 100 mM NaCl, 1 mM DTT, 0.1% PEG 8000, pH 8.0; intrinsic fluorescence, Monolith NT.LabelFree
# T1 construct: made in house; host or cells: E. coli
# T1 sequence (P62136 whole entry): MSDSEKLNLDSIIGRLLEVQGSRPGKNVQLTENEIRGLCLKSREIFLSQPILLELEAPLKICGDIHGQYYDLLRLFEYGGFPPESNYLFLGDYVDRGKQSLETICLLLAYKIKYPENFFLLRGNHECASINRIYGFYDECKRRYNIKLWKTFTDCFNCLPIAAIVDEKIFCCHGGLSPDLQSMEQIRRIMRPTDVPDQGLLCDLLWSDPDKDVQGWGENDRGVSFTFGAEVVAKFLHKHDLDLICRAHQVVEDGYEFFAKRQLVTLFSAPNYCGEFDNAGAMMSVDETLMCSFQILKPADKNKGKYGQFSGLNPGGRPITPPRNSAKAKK
# Method: The interaction of P-Thr696-MYPT1^690−701 and the recombinant PP1cα (rPP1cα) was studied by Monolith^TM NT.LabelFree (MST power: 40%; LED Power: 10%) instrument (NanoTemper Technologies GmbH, Munich, Germany). A 16-point two-fold P-Thr696-MYPT1^690−701 peptide dilution series was generated (9.16 nM-300 µM) in 25 mM Tris/HCl, 100 mM NaCl, 1 mM DTT, 0.1% PEG 8000, pH 8.0 and mixed with rPP1cα (2 µM). The mixtures were loaded into NT.LabelFree standard capillaries. The capillaries on the capillary tray were scanned and intrinsic fluorescence change of rPP1cα upon ligand binding was recorded. The data were analyzed by MO.Affinity Analysis v2.3 software.
# [2] = biological target: T1, recombinant PP1cα (rPP1cα); experiment: Isothermal titration calorimetry (ITC); format: binding; details: rPP1cα 0.5–2 µM, peptide 5–20 µM, 25 mM Tris/HCl (pH 8.0), 150 mM NaCl, 1 mM TCEP, 25 °C; one set of site model
# Method: Isothermal titration calorimetry (ITC) experiments were carried out with MicroCal ITC200 instrument. rPP1cα was dialyzed in 25 mM Tris/HCl (pH 8.0), 150 mM NaCl, 1 mM TCEP (assay buffer) for 3 h first, then 16 h with a fresh batch of solution. Prior to measurements, rPP1cα (0.5–2 µM) was transferred into the sample cell of the calorimeter while the reference cell was filled with the assay buffer. P-Thr696-MYPT1^690−701 (5–20 µM) in the assay was applied to the syringe and 2 µL aliquot (19 times) was injected into the cell at a stirring rate of 300 rpm at 25 °C. The reference power was 5 µcal/s. The titration data were analyzed with MicroCal ITC-Origin software using one set of site model to obtain binding parameters of protein–ligand interaction.
# [3] = system: native catalytic subunit of PP1 (PP1c); experiment: Phosphatase assay of native PP1c with ^32P-MLC20 substrate; format: biochemical, rabbit skeletal muscle; details: PP1c 1.5–2.2 nM, 1 µM ^32P-MLC20, pH 7.4, 30 °C; n = 4
# Method: Figure 2 Effects of a phosphorylated peptide from MYPT1 on the activity of PP1c, PP2Ac and myosin phosphatase holoenzyme (Flag-MYPT1-PP1c). (A): The native catalytic subunit of PP1 (PP1c; ▼,●) or PP2A (PP2Ac; ∆) purified from rabbit skeletal muscle or Flag-MYPT1-PP1c overexpressed and isolated from tsa201 cells (○) was assayed in the presence of dephosphorylated (▼) or phosphorylated (○,●,∆) MYPT1 peptide of R^690QSRRS(pT696)QGVTL^701 (P-Thr696-MYPT1^690−701) with ^32P-MLC20 substrate as described in Section 4. Values are mean ± SD (n = 4). Phosphatase activity in the absence of peptide was taken 100%. (B): Interaction of recombinant PP1cα with the phosphorylated peptide assessed by microscale thermophoresis (MST) or (C): with isotherm titration calorimetry (ITC) as described in Section 4. […] Only the axis text 'MYPT1^690-701 peptides' names the substance, and no target is printed. / Panel C: the picture prints no substance label for the ITC parameters.
# The ^32Pi released from ^32P-MLC20 substrate were determined as previously described. The assay (80 µL) to determine the half-life of dephoshorylation for ^32P-MLC20 (10 µM) in the presence of various concentration of P-Thr696-MYPT1^690−701 (10–500 µM) was carried out in a similar fashion except that 5 µL aliquots were removed from the reaction mixture at different intervals for radioactivity measurements.
substance,measurement,setting,value
"MYPT1^690−701: synthesized MYPT1 peptide, non-phosphorylated (RQSRRSTQGVTL; UniProt O14974 690-701, looked up, fragment)",KD by MST,[1],no MST or ITC signals suitable for quantitative evaluation were obtained
same,KD by ITC,[2],no MST or ITC signals suitable for quantitative evaluation were obtained
same,effect on PP1c activity,[3],without effect
